Blank lines part the entries; values can stand above or below the substance they belong to.
Assays:
[1] = target: α1A-tubulin (α-Tubulin-CT) 399-451 (UniProt Q71U36); assay: GST pull-down, anti-His blot; settings: sites S245
[2] = target: polymerized microtubules from Cos7 lysate; assay: tubulin cosedimentation assay, band densitometry of immunoblots; settings: pre-cleared lysates of Cos7 cells expressing FLAG tagged GIV-WT or SD mutant; n = 3; parent: est. 0.90; read off a plot

binding against the reference ([1]; reference: His-GIV-NT WT, not phosphorylated): gained
Substance: GIV (Girdin) 1-440 (from UniProt Q3V6T2) His-GIV-NT WT phosphorylated by AMPK

other: Ratio of GIV (Pellet:Supernatant) [2]: 2
Substance: GIV-FLAG WT, full length human GIV (from UniProt Q3V6T2) S245D

binding against the reference ([1]; reference: wild type, AMPK-treated): lost
Substance: GIV (Girdin) 1-440 (from UniProt Q3V6T2) S245A, AMPK-treated
